# Assay results: patent publication US20240166738A1 (priority 2021, published 2024)
# Positions count from the first letter of the chain named.
# B1: TM-79: anti-TMEM106B monoclonal antibody; VH SEQ ID NO: 484, VL SEQ ID NO: 519 (antibody, V domains shown)
# VH: EVQLQQSGPELVKPGASVKMSCKASGYTFTNYVMHWLKQKPGQGLEWIAHITPHNDGTKYNEKFKGKATLTSDRSSSTAYMELNSLTSEDSAIYYCARSGQFGRGDYFHYWGQGTTVTVSS
# VL: DIVLTQSPASLAVSLGQRATISCRASKSVSTSGSIYIHWYQQKPGQPPKLLIYLTSNLESGVPARFSGSGSGTDFTLNIHPVEEEDAATYYCQHSGELPWTFGGGARLEIK
# modifications: Variable Heavy Chain -- TM-79; Variable Light Chain -- TM-79
# B2: TM-3: anti-TMEM106B monoclonal antibody; CDR-H1-3 SEQ ID NO: 4, 37, 80; CDR-L1-3 SEQ ID NO: 122, 162, 186 (antibody, V domains shown)
# VH: QVTLKESGPGIVQPSQTLSLTCSFSGFSLNTLGRGVGWIRQPSGKGLEWLAKIWWNDDKFYYPALKSRLTISKDTSKNQIFLKIANVDTADSATYYCARIAGGTGAAYWGQGTTLTVSS
# VL: DIVMTQAAFSNPVTLGTSASISCRSSKSLLHSNGITYLYWYLQKPGQSPQLLISQMSSLASGVPDRFSSGGSGTDFTLRISRVEAEDVGVFYCAQNLELPWTFGGGTKLELK
# B3: TM-1: anti-TMEM106B monoclonal antibody; CDR-H1-3 SEQ ID NO: 2, 35, 78; CDR-L1-3 SEQ ID NO: 120, 160, 184 (antibody, V domains shown)
# VH: QVQLQQSGAELVRPGTSVKVSCKASGYAFTNYLIEWVKQRPGQGLEWIGVINPGSGGTKYNEKLKGKATLTADKSSSTAYMQLSSLTSVDSAVYFCARRGYTIYDFYAMDYWGQGTSVTVSS
# VL: DVLMTQTPLSLPVSLGDHASISCRSSQSIVYNNGNTYLEWYLQKPGQSPKLLIYKVSNRFSGVPDRFSGSGSGTDFTLKISRVEAEDLGVYYCFQVSHVPFTFGSGTKLEIK
# B4: TM-35: anti-TMEM106B monoclonal antibody; CDR-H1-3 SEQ ID NO: 24, 66, 109; CDR-L1-3 SEQ ID NO: 148, 160, 194 (antibody, V domains shown)
# VH: QVQLQQSGPELVRPGTSVKISCKAPGYTFTRHWMQWVRQRPGQGLEWIGEILPGSNNIYYNEKVKGKATLTVDTSSSTSYMQLSSLTSEDSAVYFCARSLYDYDGVFAYWGQGTLVTVSA
# VL: B3 VL with T7I, H18Q, Y31H, N32R, V96G, F101Y, S105G
# B5: TM-32: anti-TMEM106B monoclonal antibody; CDR-H1-3 SEQ ID NO: 13, 63, 106; CDR-L1-3 SEQ ID NO: 145, 160, 200 (antibody, V domains shown)
# VH: EVQLQQSGAELVRPGASVRLSCIASGFNIKDYYMYWVKQRPEQGLEWIGRIDPEDGDTEYVPKFQGKATMTADTSSNTAYLQLSSLTSEDIGVYYCTTRTWDLYYAVDNWGQGTSVTVSS
# VL: B3 VL with H18Q, S28N, Y31H, N32S, Y54D, V90I, V96G
# B6: TM-54: anti-TMEM106B monoclonal antibody; VH SEQ ID NO: 464, VL SEQ ID NO: 500 (antibody, V domains shown)
# VH: QVQMQQSGPVLVKPGASVTLSCKASGYTFTTYDLNWVKQRPGQGLEWIGWIYPRGGSTEYNEKFKGKATLTVDTSSSTAYMELHSLTSEDSAVYFCAKYSIYAMDYWGQGTSVTVSS
# VL: B3 VL with H18Q, Y31H, N32G, V96G, F101W, S105G, I111M
# modifications: Variable Heavy Chain -- TM-54; Variable Light Chain -- TM-54
# B7: TM-48: anti-TMEM106B monoclonal antibody; CDR-H1-3 SEQ ID NO: 32, 74, 116; CDR-L1-3 SEQ ID NO: 155, 160, 218 (antibody, V domains shown)
# VH: QVQLQQSGPELVKPGASVKLSCKASGYTFTSYDINWVKQRPGQGLEWIGWIYPRDGNTQYIEKLKGKATLTVDTSSSTAYMELHSLTSEDSAVYFCARWIFYAMDYWGQGTSVTVSS
# VL: B3 VL with D17N, H18Q, Y31H, N32G, V96G, V99L, F101Y, S105G
# B8: TM-26: anti-TMEM106B monoclonal antibody; CDR-H1-3 SEQ ID NO: 2, 56, 99; CDR-L1-3 SEQ ID NO: 139, 176, 203 (antibody, V domains shown)
# VH: QVQLQQSGAELIRPGTSVKVSCKASGYAFTNYLIEWVKKRPGQGLEWIGVINPGSGITNYNEKFKGKATLTADKSSSTAYMQLSSLTSEDSAVYFCARSDFITTVVADYWGQGTTVTVSS
# VL: DIVVTQTPLSLPVSFGDQVSISCRSSQSLTNYYGNTYLSWYLHKPGQSPQLLIYGISNRFSGVPDRFSGSGSGTDFTLKISTIKPEDLGMYYCLQGTHQPRTFGGGTKLEIK
# B9: TM-82: anti-TMEM106B monoclonal antibody; VH SEQ ID NO: 487, VL SEQ ID NO: 522 (antibody, V domains shown)
# VH: B8 VH with I12V, K19R, V37I, K39Q, N59D, N61S, T69R, E89D, A97T, D100P
# VL: B8 VL with I2V, T30A, Y32T, K44T, Y54F, M90V, Q99P, I111M
# modifications: Variable Heavy Chain -- TM-82; Variable Light Chain -- TM-82
# B10: TM-17: anti-TMEM106B monoclonal antibody; CDR-H1-3 SEQ ID NO: 17, 51, 94; CDR-L1-3 SEQ ID NO: 132, 172, 196 (antibody, V domains shown)
# VH: QVQLQQSGAELIRPGTSVKVSCKASGYAFTDYLIEWVKQRPGQGLEWIGVINPGSGGTNYNEKFKGKAKLTADKSSSTAYMQLSSLTSEDSAVYFCVRSSYGVYVAYPMDYWGQGTSVTVSS
# VL: DIQMTQSPSSLSASLGERVSLTCRASQDIGSNLNWLQQEPDGTIKRLIYATSSLDSGVPKRFSGSRSGSDYSLTISSLESEDFVDYYCLQYASSPRTFGGGTKLEIK
# B11: TM-24: anti-TMEM106B monoclonal antibody; CDR-H1-3 SEQ ID NO: 12, 45, 88; CDR-L1-3 SEQ ID NO: 140, 170, 204 (antibody, V domains shown)
# VH: QVQLKQSGPGQVQPSQSLSITCTVSGFSLSDYGVHWVRQSPGKGLEWLGVIWNNGNTDYNAAFISRLSINKDNSKSQVFFKMTSLQADDTAIYYCVRSLRPLHFDYWGQGTTVTVSS
# VL: DIVMTQSPSSLTMSVGQKVTMNCKSSQSLLNSNNQQNYLAWYQQKPGQSPKLLVYFASIRESGVPDRFIGSGSGTDFTLTINSVQAEDLADYFCQQHYSTPFTFGSGTKLEIR
# B12: TM-25: anti-TMEM106B monoclonal antibody; CDR-H1-3 SEQ ID NO: 10, 57, 100; CDR-L1-3 SEQ ID NO: 137, 168, 205 (antibody, V domains shown)
# VH: EVQLVESGGDLVKPGGSLRLSCAASGFTFSGYGMSWIRQTPDKRLEWVATISSGGRYTVYPDSVKGRFTMSRDNVKNTLYLQMSSLKSEDTALYYCARDNFYSYAMDYWGLGTSVTVSA
# VL: DIVMTQAAFSNPVTLGTSASISCRSSKSLLHSNGITYLFWYLQKPGQSPQLLIYQMSNLASGVPDRFSSSGSGTDFTLRISRVEAEDVGVYYCAQNLELWTFGGGTKLEIK
# Target: GST-TMEM106B (truncated, comprising amino acids 122-210 of SEQ ID NO:1) (Homo sapiens, UniProt Q9NUM4)
# Test: Pre-mix epitope binning of anti-TMEM106B antibodies (Carterra / Lake Pharma)
# Format: binding
# Parameters: key to epitope bin: Bin 1: competes for binding to the same or overlapping TMEM106B region as the TM1, TM17, TM22, TM26, TM79, and/or TM82 antibodies; Bin 2: competes for binding to the same or overlapping TMEM106B region as the TM3, TM9, TM10, TM11, TM12, TM13, TM18, TM19, TM21, TM24, TM25, TM32, TM35, TM37, TM42, TM45, TM48, TM54, TM59, TM60, TM61, and/or TM76 antibodies; Bin 3: competes for binding to the same or overlapping TMEM106B region as the TM7, TM15, TM83, and/or TM84 antibodies; Bin 4: competes for binding to the same or overlapping TMEM106B region as the TMS, TM28, TM29, TM30, TM63, TM64, TM72, TM78, TM80, TM86, and/or TM88 antibodies; Bin 5: does not bind to a truncated TMEM106B comprising amino acids 122-210 of SEQ ID NO:1
# Settings: competition for binding to truncated GST-TMEM106B (amino acids 122-210)
# Experimental: (§1) Monoclonal anti-TMEM106B antibodies were immobilized to a CMD 50M chip (Xantec # SPMXCMD5OM lot# SCCMD50M0416). The running buffer was HBS-EP+ with 1 mg/mL BSA. The GST-TMEM106B (truncated, comprising amino acids 122-210 of SEQ ID NO:1) antigen was prepared at a final concentration of 55 nM (corresponding to 2 μg/mL) and mixed with the competing analyte anti-TMEM106B antibodies at a final concentration of 333 nM (corresponding to 50 μg/mL) or compared to a buffer control. Samples were injected for 5 minutes over the array and regenerated after every cycle with 1 minute of two parts Pierce IgG-Elution buffer (ThermoFisher Cat#21004) and 1 part of 10 mM Glycine, pH 2.0 (Carterra).
# Anti-TMEM106B antibodies sorted into various competing bins and resulting binning profiles. […] Antibodies within Bin 3 or Bin 4 partially block Bin 2 antibodies.
# as §1, with “SPMXCMD50M” for “SPMXCMD5OM”, “lmg/ml” for “1 mg/mL”, “(truncated)” for “(truncated, comprising amino acids 122-210 of SEQ ID NO:1)”, “μg/ml)” for “μg/mL)”
# Sequence of GST-TMEM106B (truncated, comprising amino acids 122-210 of SEQ ID NO:1) (Q9NUM4 122-210): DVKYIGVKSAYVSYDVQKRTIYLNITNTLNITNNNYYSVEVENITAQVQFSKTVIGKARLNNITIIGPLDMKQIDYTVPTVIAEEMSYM
row,Molecule,epitope bin
1,B1,Bin 1
2,B2,Bin 2
3,B3,Bin 1
4,B4,Bin 2
5,B5,Bin 2
6,B6,Bin 2
7,B7,Bin 2
8,B8,Bin 1
9,B9,Bin 1
10,B10,Bin 1
11,B11,Bin 2
12,B12,Bin 2

# Same assay, conditions: epitope bin number; pre-mix binning on truncated GST-TMEM106B
row,Molecule,Binding Community/Bin
1,B1,1
2,B2,2
3,B3,1
4,B4,2
5,B5,2
6,B6,2
7,B7,2
8,B8,1
9,B9,1
10,B10,1
11,B11,2
12,B12,2
